According to patent US20110294738A1, “PTHR1 RECEPTOR COMPOUNDS” (priority 2008, published 2011):
* marks the point of attachment. Palmitoyl = CCCCCCCCCCCCCCCC(=O)*

Columns and labels:
[1] = biological target: T1, PTHR1 (Rattus norvegicus, UniProt P25961)
T1 sequence (P25961 27-591): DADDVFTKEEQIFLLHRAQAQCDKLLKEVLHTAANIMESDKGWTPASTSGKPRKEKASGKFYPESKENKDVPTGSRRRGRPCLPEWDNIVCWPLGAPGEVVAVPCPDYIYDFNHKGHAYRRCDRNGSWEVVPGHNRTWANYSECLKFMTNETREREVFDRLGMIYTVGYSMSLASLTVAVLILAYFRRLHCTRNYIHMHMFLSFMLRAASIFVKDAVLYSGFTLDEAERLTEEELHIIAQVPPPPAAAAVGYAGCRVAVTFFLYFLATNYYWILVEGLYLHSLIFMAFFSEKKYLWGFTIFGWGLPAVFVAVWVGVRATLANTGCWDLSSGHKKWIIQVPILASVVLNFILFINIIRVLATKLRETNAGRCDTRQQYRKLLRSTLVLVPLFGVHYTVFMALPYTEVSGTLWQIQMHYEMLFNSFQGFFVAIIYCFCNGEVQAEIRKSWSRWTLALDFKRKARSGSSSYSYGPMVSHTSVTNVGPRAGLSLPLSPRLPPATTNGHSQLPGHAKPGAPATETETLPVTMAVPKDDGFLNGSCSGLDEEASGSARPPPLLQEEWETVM
Protocol: (§1) cAMP Screening Assay Using DiscoveRX XS+ Kit
(§2) UMR-106 cells were seeded in 96-well white plates at 10K cells/well in growth media. Twenty four hours after seeding, cell media was removed by gentle dumping and replaced with 30 μL of compounds diluted to 10 μM final concentration in assay buffer (Hank's balanced Salt Solution, 20 mM HEPES, pH 7.4, 0.1 μM IBMX). After 30 minute incubation at room temperature, 10 μL human PTH1-34 serial diluted in assay buffer was added. Cells were incubated at 37° C. for 15 minutes before 10 μL of water soluble analog of forskolin, NKH477 was added to final concentration of 10 μM followed by 60 minute incubation at room temperature. DiscoveRX cAMP XS+ kit reagents were then added following manufacture protocol. Briefly, 10 μL of antibody was added to each well followed by 40 μL of ED/Lysis buffer mix (1/5/19 for Galacon-star/Emerald/Lysis buffer and then 1:1 with ED). After 1 hour incubation, 40 μL of EA reagent was added followed by at least 1 hour incubation before the plates were read on TopCount reader. Data was analyzed using GraphPad Prism. PTH1-34 dose-response curves were fitted using non-linear curve fit (Y=Bottom+(Top−Bottom)/(1+10̂((Log EC50−X)*HillSlope))). PTH1-34 EC50 values calculated in the presence of compounds were compared to that in the presence of vehicle control. The ratio of the EC50 values were calculated and presented as fold shift (EC50 compound/EC50 vehicle). The effect of compounds on PTH1-34 stimulated maximal response was also assessed and was presented percent inhibition (1−(Emax compound/Emax vehicle)).

[2] = biological target: T1, PTHR1; experiment: cAMP screening assay using DiscoveRX XS+ kit (PTH1-34 dose-response in UMR-106 cells); details: compound 10 μM, PTH1-34 stimulated maximal response, 1−(Emax compound/Emax vehicle)
Protocol: as §1, §2

Substance: RETNAGRSDTRQQYRKLL [Compound 59]
- Fold Shift of EC50 [1]: 5.2
- Inhibition of Maximal Response [2]: 3.00%

Substance: TNAGRSDTRQQYRKLLF [Compound 83]
- Fold Shift of EC50 [1]: 7
- Inhibition of Maximal Response [2]: −5.80%

Substance: NIVRVLATKLRE [Compound 55]
- Fold Shift of EC50 [1]: 0.6
- Inhibition of Maximal Response [2]: 26.10%

Substance: RRLHSTRNYIHMH [Compound 1]
- Fold Shift of EC50 [1]: 1.3
- Inhibition of Maximal Response [2]: 5.50%

Substance: NGEVQAEIKKSWSRWT [Compound 101]
- Fold Shift of EC50 [1]: 1.2
- Inhibition of Maximal Response [2]: 25.30%

Substance: RETNAGRSDTRQQY [Compound 62]
- Fold Shift of EC50 [1]: 1.1
- Inhibition of Maximal Response [2]: −5.40%

Substance: SGRVLATKLR [Compound 71]
- Fold Shift of EC50 [1]: 0.8
- Inhibition of Maximal Response [2]: 13.50%

Substance: KKSWSRWTLALDFKRKAR [Compound 97]
- Fold Shift of EC50 [1]: 4.7
- Inhibition of Maximal Response [2]: 37.20%

Substance: DTRQQYRKLLKSTL [Compound 56]
- Fold Shift of EC50 [1]: 1.9
- Inhibition of Maximal Response [2]: −30.40%

Substance: YFRRLHSTRNYIH [Compound 6]
- Fold Shift of EC50 [1]: 1
- Inhibition of Maximal Response [2]: 10.80%

Substance: TNAGRSDTRQQYRKLA [Compound 88]
- Fold Shift of EC50 [1]: 2.8
- Inhibition of Maximal Response [2]: −25.00%

Substance: TNAGRSDTRQQYRK [Compound 69]
- Fold Shift of EC50 [1]: 5.2
- Inhibition of Maximal Response [2]: 2.50%

Substance: SGRRLHSTRNYIHMH [Compound 17]
- Fold Shift of EC50 [1]: 2.8
- Inhibition of Maximal Response [2]: 39.40%

Substance: HSLIFMAFFSEKKYLWGFT [Compound 36]
- Fold Shift of EC50 [1]: 1.2
- Inhibition of Maximal Response [2]: 5.90%

Substance: Pal-GSEKKYLWGFTVF-amide (Palmitoyl-GSEKKYLWGFTVF-NH2; SMILES CCCCCCCCCCCCCCCC(=O)NCC(=O)N[C@@H](CO)C(=O)N[C@@H](CCC(=O)O)C(=O)N[C@@H](CCCCN)C(=O)N[C@@H](CCCCN)C(=O)N[C@@H](Cc1ccc(O)cc1)C(=O)N[C@@H](CC(C)C)C(=O)N[C@@H](Cc1c[nH]c2ccccc12)C(=O)NCC(=O)N[C@@H](Cc1ccccc1)C(=O)N[C@H](C(=O)N[C@H](C(=O)N[C@@H](Cc1ccccc1)C(N)=O)C(C)C)[C@@H](C)O) [Compound 41]
- Fold Shift of EC50 [1]: 0.9
- Inhibition of Maximal Response [2]: 17.70%

Substance: AYFRRLHSTRNYIH [Compound 7]
- Fold Shift of EC50 [1]: 1.2
- Inhibition of Maximal Response [2]: 36.00%

Substance: VRVLATKLRETNAGRSDTR [Compound 45]
- Fold Shift of EC50 [1]: 1.4
- Inhibition of Maximal Response [2]: 9.10%

Substance: RSDTRQQYRKLLKS [Compound 66]
- Fold Shift of EC50 [1]: 16.4
- Inhibition of Maximal Response [2]: −39.00%

Substance: NGEVQAEIKKSWSRWTLA [Compound 98]
- Fold Shift of EC50 [1]: 1
- Inhibition of Maximal Response [2]: 0.50%

Substance: TNAGRADTRQQYRKLL [Compound 77]
- Fold Shift of EC50 [1]: 6.9
- Inhibition of Maximal Response [2]: 9.90%

Substance: TNAGRSDTRQQYRKLLK [Compound 84]
- Fold Shift of EC50 [1]: 9.1
- Inhibition of Maximal Response [2]: −25.20%

Substance: DTRQQYRKLLKS [Compound 67]
- Fold Shift of EC50 [1]: 6
- Inhibition of Maximal Response [2]: 6.90%

Substance: KLRETNAGRSDTRQQRKLL [Compound 47]
- Fold Shift of EC50 [1]: 2.7
- Inhibition of Maximal Response [2]: 8.30%

Substance: NIVRVLATKLRETNAGRSD [Compound 44]
- Fold Shift of EC50 [1]: 2
- Inhibition of Maximal Response [2]: −8.30%

Substance: RETNAGRSDTRQQYRK [Compound 60]
- Fold Shift of EC50 [1]: 3.3
- Inhibition of Maximal Response [2]: 4.30%

Substance: SGRVLATKLRETNA [Compound 73]
- Fold Shift of EC50 [1]: 0.8
- Inhibition of Maximal Response [2]: 32.30%

Substance: NIVRVLATKLRETNAGR [Compound 54]
- Fold Shift of EC50 [1]: 0.7
- Inhibition of Maximal Response [2]: 17.50%

Substance: Pal-NGEVQAEIKKSWSRWTLALD-amide (Palmitoyl-NGEVQAEIKKSWSRWTLALD-NH2; SMILES CCCCCCCCCCCCCCCC(=O)N[C@@H](CC(N)=O)C(=O)NCC(=O)N[C@@H](CCC(=O)O)C(=O)N[C@H](C(=O)N[C@@H](CCC(N)=O)C(=O)N[C@@H](C)C(=O)N[C@@H](CCC(=O)O)C(=O)N[C@H](C(=O)N[C@@H](CCCCN)C(=O)N[C@@H](CCCCN)C(=O)N[C@@H](CO)C(=O)N[C@@H](Cc1c[nH]c2ccccc12)C(=O)N[C@@H](CO)C(=O)N[C@@H](CCCNC(=N)N)C(=O)N[C@@H](Cc1c[nH]c2ccccc12)C(=O)N[C@H](C(=O)N[C@@H](CC(C)C)C(=O)N[C@@H](C)C(=O)N[C@@H](CC(C)C)C(=O)N[C@@H](CC(=O)O)C(N)=O)[C@@H](C)O)[C@@H](C)CC)C(C)C) [Compound 105]
- Fold Shift of EC50 [1]: 1.1
- Inhibition of Maximal Response [2]: 34.00%

Substance: GSEKKYLWG [Compound 43]
- Fold Shift of EC50 [1]: 1.4
- Inhibition of Maximal Response [2]: 5.70%

Substance: YLHSLIFMAFFSEKKYLWGFT [Compound 35]
- Fold Shift of EC50 [1]: 1.1
- Inhibition of Maximal Response [2]: 24.50%

Substance: LAYFRRLHSTRN [Compound 14]
- Fold Shift of EC50 [1]: 0.7
- Inhibition of Maximal Response [2]: 15.20%

Substance: RETNAGRSDTRQ [Compound 63]
- Fold Shift of EC50 [1]: 1.1
- Inhibition of Maximal Response [2]: 1.20%

Substance: TNAGRSDTRQQYRKLLFA [Compound 86]
- Fold Shift of EC50 [1]: 3.6
- Inhibition of Maximal Response [2]: 5.20%

Substance: LYLHSLIFMAFFSEKKYLWG [Compound 38]
- Fold Shift of EC50 [1]: 1.1
- Inhibition of Maximal Response [2]: 21.90%

Substance: LAYFRRLHSTRNYIHMH [Compound 10]
- Fold Shift of EC50 [1]: 1.1
- Inhibition of Maximal Response [2]: 24.10%

Substance: GSEKKYLWGFT [Compound 42]
- Fold Shift of EC50 [1]: 1.3
- Inhibition of Maximal Response [2]: 40.80%

Substance: TNAGRSDTRQQYRF [Compound 70]
- Fold Shift of EC50 [1]: 2
- Inhibition of Maximal Response [2]: 15.10%

Substance: SGRVLATKLRET [Compound 72]
- Fold Shift of EC50 [1]: 0.7
- Inhibition of Maximal Response [2]: 22.30%

Substance: RVLATKLRETNAGR [Compound 75]
- Fold Shift of EC50 [1]: 1.1
- Inhibition of Maximal Response [2]: 12.60%

Substance: AGRSDTRQQYRKLLFA [Compound 94]
- Fold Shift of EC50 [1]: 18.7
- Inhibition of Maximal Response [2]: −24.40%

Substance: SRWTLALDFKRKAR [Compound 104]
- Fold Shift of EC50 [1]: 1.2
- Inhibition of Maximal Response [2]: 26.80%

Substance: HSLIFMAFFSEKKYL [Compound 33]
- Fold Shift of EC50 [1]: 1.1
- Inhibition of Maximal Response [2]: 27.50%

Substance: SWSRWTLALDFKRKAR [Compound 102]
- Fold Shift of EC50 [1]: 1
- Inhibition of Maximal Response [2]: −25.40%

Substance: KLRETNAGRSDTRQQY [Compound 53]
- Fold Shift of EC50 [1]: 2.1
- Inhibition of Maximal Response [2]: 6.40%

Substance: LAYFRRLHSTR [Compound 4]
- Fold Shift of EC50 [1]: 0.9
- Inhibition of Maximal Response [2]: −74.20%

Substance: EIKKSWSRWTLALDFKRKAR [Compound 96]
- Fold Shift of EC50 [1]: 1.1
- Inhibition of Maximal Response [2]: 7.00%

Substance: TNAGRSDTRQQYRKLLKS [Compound 64]
- Fold Shift of EC50 [1]: 7
- Inhibition of Maximal Response [2]: −0.10%

Substance: TNAGRSDTRQQYRKLLA [Compound 87]
- Fold Shift of EC50 [1]: 4.1
- Inhibition of Maximal Response [2]: 8.00%

Substance: LHSLIFMAFFSEKKYLWGFT [Compound 37]
- Fold Shift of EC50 [1]: 1.1
- Inhibition of Maximal Response [2]: 35.60%

Substance: SGRVLATKLRETNAGR [Compound 74]
- Fold Shift of EC50 [1]: 1.9
- Inhibition of Maximal Response [2]: 22.20%

Substance: RETNAGRSDTRQQYRF [Compound 61]
- Fold Shift of EC50 [1]: 0.7
- Inhibition of Maximal Response [2]: −47.60%

Substance: LYLHSLIFMAFFSEKKYL [Compound 39]
- Fold Shift of EC50 [1]: 1.3
- Inhibition of Maximal Response [2]: 29.30%

Substance: GGYFRRLHSTRNYIH [Compound 13]
- Fold Shift of EC50 [1]: 0.7
- Inhibition of Maximal Response [2]: 29.20%

Substance: RRLHSTRNYIHM [Compound 15]
- Fold Shift of EC50 [1]: 1.7
- Inhibition of Maximal Response [2]: 1.50%
